Reference: US20140112919A1
pIC50: −log10 of the molar value.

Experiments:
rat anti hIL-10 mAb 12G8 = test: competitive ECLA (IGEN): unlabeled IL-10 titrated against hIL-10-biotin for binding to rat 12G8
[1] = target: T1, recombinant hIL-10Ra: FLAG-tagged protein (human) (UniProt Q13651); test: competitive ECLA (IGEN): unlabeled IL-10 titrated against hIL-10-biotin for binding to FLAG-tagged hIL-10Ra
T1 sequence: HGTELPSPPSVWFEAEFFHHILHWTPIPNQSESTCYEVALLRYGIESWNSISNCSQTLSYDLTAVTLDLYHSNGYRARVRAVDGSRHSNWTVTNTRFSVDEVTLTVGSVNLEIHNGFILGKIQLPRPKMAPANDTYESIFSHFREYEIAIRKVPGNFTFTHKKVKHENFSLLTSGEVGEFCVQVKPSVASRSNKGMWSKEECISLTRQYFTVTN

recombinant cyno IL-10, sequence (P79338 19-178 limits assumed): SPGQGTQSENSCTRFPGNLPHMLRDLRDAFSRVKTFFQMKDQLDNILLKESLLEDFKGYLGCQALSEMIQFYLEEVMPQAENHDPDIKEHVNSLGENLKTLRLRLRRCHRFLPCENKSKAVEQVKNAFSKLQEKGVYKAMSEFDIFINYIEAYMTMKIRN

| pIC50 (rat anti hIL-10 mAb 12G8) | pIC50 [1] | Substance |
| --- | --- | --- |
| 8.15 | 8.14 | recombinant human IL-10-monomer (from UniProt P22301) (ligand) |
| 8.33 | 8.54 | recombinant human IL-10 (from UniProt P22301) (ligand) |
| 8.18 | 7.75 | recombinant cyno IL-10 (from UniProt P79338) (ligand) |
